Tests used:
Assay in all cases: flow cytometry on cells
[1] = molecular target: RMF peptide on HLA-A*02 of peptide-pulsed T2 cells (Homo sapiens, HLA-A*02:01, strain)
[2] = molecular target: MED13L peptide … on HLA-A*02:01 of peptide-pulsed T2 cells (Homo sapiens, HLA-A*02:01 (T2 cells))
[3] = molecular target: PIGQ peptide … on HLA-A*02:01 of peptide-pulsed T2 cells (Homo sapiens, HLA-A*02:01 (T2 cells))

Measured: binding result

B1: ESK1 full-length human IgG1 antibody (antibody, V domains shown)
VH: QMQLVQSGAEVKEPGESLRISCKGSGYSFTNFWISWVRQMPGKGLEWMGRVDPGYSYSTYSPSFQGHVTISADKSTSTAYLQWNSLKASDTAMYYCARVQYSGYYDWFDPWGQGTLVTVSS
VL: not shown
binds: [1] | [2] | [3]

From paper PMC4738012 (Journal of molecular biology, 2015)
